Common to all, as to assay: fluorescence quenching
Series [1] concerns the target T1, hparp486 (Homo sapiens, UniProt P09874 1-486).
For series [2], the target named is T1, hparp486. This is another data set of the same source.
Series [3] deals with T1, hparp486. The source holds these as a separate data set.

Like-named read-outs stand apart in the source and are kept apart here.

T1 sequence (P09874 1-486): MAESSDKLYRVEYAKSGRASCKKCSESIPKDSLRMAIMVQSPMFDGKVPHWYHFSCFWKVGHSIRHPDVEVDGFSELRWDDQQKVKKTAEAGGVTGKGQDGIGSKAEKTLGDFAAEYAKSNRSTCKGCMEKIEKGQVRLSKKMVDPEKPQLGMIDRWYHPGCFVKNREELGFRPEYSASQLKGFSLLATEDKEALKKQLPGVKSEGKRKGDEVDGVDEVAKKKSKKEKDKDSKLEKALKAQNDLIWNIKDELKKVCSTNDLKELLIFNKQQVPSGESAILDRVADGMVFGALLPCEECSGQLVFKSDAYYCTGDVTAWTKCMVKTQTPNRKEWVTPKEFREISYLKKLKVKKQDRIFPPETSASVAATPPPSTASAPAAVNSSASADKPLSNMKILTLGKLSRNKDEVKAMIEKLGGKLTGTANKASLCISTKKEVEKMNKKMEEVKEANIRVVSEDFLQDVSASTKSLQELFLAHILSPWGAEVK

B1: 30Ext (pos. B) (dsDNA)
DNA 1: ATCAGATAGCATCTGTGCGGCCGCTTAGGGTTAGGG
DNA 2: CCCTAAGCGGCCGCACAGATGCTATCTGAT
In turn, B1 gave a Kd in series [1] of 130 nM.

B2: 30Ext (pos. A) (dsDNA)
DNA 1: B1 DNA 1
DNA 2: B1 DNA 2
With B2, the Kd in series [2] is 68 nM.

B3: 30Blunt (dsDNA)
DNA 1: ATCAGATAGCATCTGTGCGGCCGCTTAGGG
DNA 2: B1 DNA 2
In series [3], B3 registered a Kd of 282 nM.

What is called Kd is a measure of binding affinity in units of concentration. Low readings indicate higher affinity, high ones lower affinity.

For the origin of these results see publication PMC2864582.
